Assay results from US7294472B2, “Method for identifying modulators of G protein coupled receptor signaling” (Caden Biosciences, priority 2001, dated 2007).
Each block holds one sequence with its values, some of them ahead of it. Where no end group is shown, it is not given here.

Tests used:
[1] = target: β2 adrenergic receptor (Homo sapiens, UniProt P07550); experiment: ELISA binding of peptides panned from the Gs library to β2 adrenergic receptor; settings: recombinant reconstituted β2 adrenergic receptor; peptides selected from Gs library
Source text: The methods of Example 7 were repeated using recombinant reconstituted β2 adrenergic receptor panned with the Gs Library.

[2] = target: T1, rhodopsin (Bos taurus, UniProt P02699); experiment: ELISA binding of lysates of peptides panned from the Gt library to rhodopsin; design: species or system bovine; settings: OD450 for wells with receptor minus OD450 for wells with no receptor
T1 construct: Bovine rod outer segments (rhodopsin-containing membranes) were prepared from fresh retinas; from tissue; host or cells: bovine retina, rod outer segment membranes (EDTA- and urea-washed)
T1 sequence (P02699 whole entry): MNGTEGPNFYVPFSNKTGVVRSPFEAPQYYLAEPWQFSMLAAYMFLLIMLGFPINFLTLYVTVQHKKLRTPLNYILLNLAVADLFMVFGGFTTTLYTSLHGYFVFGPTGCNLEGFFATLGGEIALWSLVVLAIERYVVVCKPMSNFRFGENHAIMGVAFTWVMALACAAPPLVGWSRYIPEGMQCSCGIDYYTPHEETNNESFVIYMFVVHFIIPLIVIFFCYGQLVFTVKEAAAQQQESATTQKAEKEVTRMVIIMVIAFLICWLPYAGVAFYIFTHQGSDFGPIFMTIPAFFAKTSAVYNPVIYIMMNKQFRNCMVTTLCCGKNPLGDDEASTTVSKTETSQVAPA
Protocol: The panning process is illustrated in FIG. 1. For screening of the library by “panning,” rhodopsin receptors prepared according to Example 5 were immobilized directly on Immulon 4 (Dynatech) microtiter wells (0.1-1 μg of protein per well) in cold 35 mM HEPES, pH 7.5, containing 0.1 mM EDTA, 50 mM KCl and 1 mM dithiothreitol (HEK/DTT). After shaking for one hour at 4° C., unbound membrane fragments were washed away with HEK/DTT. The wells were blocked with 100 μl 2% BSA in HEKL (35 mM HEPES; 0.1 mM EDTA; 50 mM KCl; 0.2 M α-lactose; pH 7.5, with 1 mM DTT). For rounds 1 and 2, BSA was used for blocking; in later rounds 1% nonfat dry milk was used. For the first round of panning, about 24 wells of a 96-well plate were used. In subsequent rounds, 8 wells with receptor and 8 wells without receptor were prepared.
The Gt library was thawed (2 mL aliquot) and mixed with 6 mL lysis buffer on ice. Lysis buffer contains 4.25 mL HE (25 mM HEPES: 0.1 mM EDTA; pH 7.5); 1 mL 50% glycerol; 750 μL 10 mg/mL protease-free BSA in HE; 10 μL 0.5 M DTT; and 6.25 μL 0.2 M PMSF. Freshly prepared lysozyme solution (150 μL 10 mg/mL lysozyme in cold HE) was added and the tube was gently inverted several times and incubated on ice for no more than two minutes. The extent of lysis is evidenced by an increase in viscosity that can be observed by noting the slow migration of bubbles to the top of the tube after mixing. Lysis was terminated by mixing in 2 mL 20% lactose and 250 μL 2M KCl. The tube was centrifuged immediately at 13,000×g for 15 minutes at 4° C. and the supernatant transferred to a new tube. A small aliquot of 0.1% (the PRE sample) was saved in a separate, labeled tube. […] Immediately thereafter, the crude bacterial lysate from the peptide library (200 μL) was added to each well and allowed to shake gently for one hour at 4° C. For round 2, this same procedure was followed. In round 3, the amount of lysate used was reduced to 100 μL. In subsequent rounds, the lysate was diluted 1:10 in HEKL/BSA. In all rounds, 5-10 μL 200 μM native peptide was added to the wells to chase off peptides that were bound with lower affinity.
The methods of Example 7 repeated using rhodopsin screening with a Gt library. To identify the rank order of binding, the lysates were analyzed using ELISA methods in which the secondary antibody was conjugated to HRP. Following addition of the substrate, the microplate was read using a spectrophotometer. The binding is the OD450 for wells with receptor—OD450 for wells in which no receptor (control wells with empty lipid vesicles).

[3] = target: T2, light-activated rhodopsin (Bos taurus, UniProt P02699); experiment: ELISA binding of MBP-peptide fusion proteins to light-activated rhodopsin; design: species or system bovine; settings: for EC50 / ELISA OD450: MBP-high affinity peptide fusion proteins; for EC50: read-out: MII binding EC50; for ELISA OD450: absorbance at OD450 in a panning ELISA
T2 construct: Bovine rod outer segments (rhodopsin-containing membranes) were prepared from fresh retinas; from tissue; host or cells: bovine retina, rod outer segment membranes (EDTA- and urea-washed)
T2 sequence (P02699 whole entry, the tested form may be a part): as the sequence (P02699 whole entry) above
Source text: The entire population of peptide-coding sequences identified in round 4 of panning (see Example 7) was transferred from pJS142 to pELM3 (New England Biolabs). This plasmid is a pMal-c2 derivative with a modified polylinker, inducible by isopropyl β-thiogalacto-pyranoside and containing the E. coli malE gene with a deleted leader sequence and leads to cytoplasmic expression of MBP fusion proteins. The MBP-carboxyl terminal peptide analog fusion proteins were expressed in E. coli.
For the assay, in the dark, 1 μg/well of ROS membranes (rhodopsin) as described in Example 5 was directly immobilized on microtiter wells in cold HEK/DTT for one hour at 4° C. The wells were rinsed, blocked with 1% BSA in HEK/DTT for one hour at 4° C. and rinsed again. Bound rhodopsin was activated by exposure to light for 5 minutes on ice before addition of the MBP fusion proteins (crude bacterial lysates were diluted 1:50 in HEK with 1 μM dithiothreitol; purified proteins were used at 0.2-120 nM). The MBP-Gαt340-350K341R (pELM17) fusion protein and MBP with linker sequence only (pELM6) were present in control wells at 50 nM final concentration. After 30 minutes, wells were washed and rabbit anti-MBP antibody (New England Biolabs) was added. The anti-MBP antibody was used at a 1:1000 dilution for crude lysates and a 1:3000 dilution for purified proteins. After 30 minutes, wells were rewashed and goat anti-rabbit antibody conjugated to horseradish peroxidase (1:7500 dilution for crude lysates; 1:10,000 dilution for purified proteins; Kierkagaard & Perry Laboratories) was added. After 30 minutes, the plate was washed four times with PBS containing 0.05% Tween™20. Horseradish peroxidase substrate (100 μl) was added and color was allowed to develop for about 20 minutes. The reaction was stopped by addition of 100 μl 2N sulfuric acid. Values indicate absorbance at OD450. The positive control for the assay was pELM 17, which encodes the MBP fusion protein Gαt340-350K341R. pELM6, which expresses MBP protein fused to a linker sequence only, served as the negative control. “No lysate” control wells were included to reflect any intrinsic, non-specific binding within the assay. […]

[4] = target: T1, rhodopsin; experiment: "extra MII" assay: stabilization of metarhodopsin II; type: biochemical, bovine; settings: for EC50: MBP-high affinity peptide fusion proteins
Source text: Rhodopsin can be measured spectrophotometrically in many of its conformational states. The high affinity, biologically active rhodopsin state can be easily differentiated from its precursor, MI, by the “extra” MII assay. See Example 35. This assay relies on the observation that under conditions of high pH and low temperature, MII is stabilized in the presence of Gt and can be spectrophotometrically measured. The ability of the C-terminal peptide to stabilize Meta II in the same manner as the heterotrimeric Gt, provides the tools to investigate the structural basis of the interaction of G proteins with the agonist binding sites of activated receptors.
For the “extra MII” assay, EDTA-washed rhodopsin (Example 5; 5 μM) is incubated in a 50 mM HEPES buffer, pH 8.2, with 100 mM NaCl, 1 mM MgCl2, and 1 mM DTT at 5.3° C., in the absence or presence of varying concentrations of Gt340-350 analogs or Gt. The sample is maintained at 5.4° C. using a water-jacketed and thermostated circulator cuvette holder in an SLM Aminco DW2000 spectrophotometer at 390 and 440 nm. A flash of light bleaching 10% of the rhodopsin is presented and after a 1 min incubation, a second spectrum is measured and the difference in spectrum calculated. “Extra” MII is calculated as the difference between the absorbance at 390 and 440. Dose response curves of MII stabilization by αt340350 (λ), mutant α340-350K341L(ν), and heterotrimeric Gt (v) were analyzed by non-linear regression using the program GraphPad PRISM and are shown in FIG. 23.
EDTA-washed rhodopsin (5 μM) was incubated in a 50 mM HEPES buffer, pH 8.2, with 100 mM NaCl, 1 mM MgCl2, and 1 mM DTT at 5.3° C., and “extra” MII was measured. For compounds that enhanced MBP-8 binding over 25% using the color coded readout, dose studies were performed to generate EC50 curves. Table XXII below provides the calculated EC50 for metarhodopsin II stabilization of each compound.

[5] = target: T3, PAR1 (Homo sapiens, UniProt P25116); experiment: ELISA binding of purified MBP clones to SF9 membranes expressing PAR1 or muscarinic M1 receptor; design: expressed in transfected cells; host or cells: membranes of Sf9 insect cells infected with ThR/pBluebac recombinant virus; settings: for specificity (in words): PAR1 versus Gq-coupled muscarinic M1 receptor; for binding affinity for PAR1 (in words): purified MBP clones, SF9 membranes
T3 sequence (P25116 22-425): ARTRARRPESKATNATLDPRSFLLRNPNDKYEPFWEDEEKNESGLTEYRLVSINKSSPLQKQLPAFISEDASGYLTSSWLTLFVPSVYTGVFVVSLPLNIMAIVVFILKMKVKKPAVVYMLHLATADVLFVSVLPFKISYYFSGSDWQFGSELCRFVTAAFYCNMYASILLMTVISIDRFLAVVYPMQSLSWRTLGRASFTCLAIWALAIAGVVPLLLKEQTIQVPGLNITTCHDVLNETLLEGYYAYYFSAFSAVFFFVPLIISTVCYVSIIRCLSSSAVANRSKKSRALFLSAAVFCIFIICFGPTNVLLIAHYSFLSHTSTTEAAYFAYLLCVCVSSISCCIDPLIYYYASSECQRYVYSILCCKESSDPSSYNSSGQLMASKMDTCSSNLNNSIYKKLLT
Protocol: To identify high affinity peptides that bind PAR1, membranes prepared from mammalian cells (Chinese hamster ovary) overexpressing PAR1 were panned with the G11 peptide library. ELISA binding affinity results of selected clones are shown in FIG. 9 for their binding to membranes prepared from SF9 cells expressing either PAR1 or the Gq-coupled muscarinic M1 receptor. To quantitate the binding, purified MBP clones were analyzed using ELISA methods in which the secondary antibody was conjugated to HRP. The binding for the control MBP-Gq fusion protein is shown. The data are the average of two separate experiments done in duplicate.

Sequence: DRMHLWRFGLL [AG11]
ELISA [1]: .192

Sequence: ERLHRRLFQLH [BAR8]
ELISA [1]: .047

Sequence: HRRHIGEFALL [BAR11]
ELISA [1]: .048

Sequence: ICENLKDCGLF [Clone L6]
ELISA [2]: .342

Sequence: ILENLKDCGLF [Clone L3]
ELISA [2]: .839

Sequence: LHLNLKEYNLV (also: fused to MBP) [PAR-33, MBP clone, linker LSTN]
specificity (in words) [5]: low specificity | binding affinity for PAR1 (in words) [5]: low affinity

Sequence: LQLNRNEYYLV (also: fused to MBP) [PAR-13, MBP clone, linker VRPS]
binding affinity for PAR1 (in words) [5]: high affinity binding

Sequence: LQQKLKEYSLV (also: fused to MBP) [PAR-23, MBP clone, linker LSRS]
specificity (in words) [5]: low specificity | binding affinity for PAR1 (in words) [5]: low affinity

Sequence: MLDNLKACGLF [Clone L4]
ELISA [2]: .908

Sequence: NCMKFRSCGLF [BAR20]
ELISA [1]: .079

Sequence: PCIQLGQYESF [BAR40]
ELISA [1]: .028

Sequence: PRPRLLRFKIP [AG19]
ELISA [1]: .361

Sequence: QGEHLRQLQLQ [AG2]
ELISA [1]: .330

Sequence: QGMQLRRFKLR [AG1]
ELISA [1]: .435

Sequence: QRIHRRPFKFF [BAR1]
ELISA [1]: .218

Sequence: QRLHLRGYEFL [AG13]
ELISA [1]: .054

Sequence: QRLNVGEYNLV (also: fused to MBP) [PAR-34, MBP clone, linker LPQM]
binding affinity for PAR1 (in words) [5]: high affinity binding

Sequence: QRLRLGPDELF [AG4]
ELISA [1]: .291

Sequence: QRLRLRKYRLF [BAR31]
ELISA [1]: .026

Sequence: QRMNLGPCGLL [AG18]
ELISA [1]: .155

Sequence: QRMPLRLFEFL [AG3]
ELISA [1]: .217

Sequence: QRMPLRQYELL [AG9]
ELISA [1]: .190

Sequence: QRVHLRQDELL [BAR2]
ELISA [1]: .197

Sequence: QWMDLRQHELL [BAR3]
ELISA [1]: .185

Sequence: RWLHWQYRGRG [AG20]
ELISA [1]: .431

The next lines start with results.

EC50 [3]: 42 nM | ELISA OD450 [3]: .36 | EC50 [4]: 5400 nM
Sequence: ICENLKDCGLF [MBP-10]

EC50 [3]: 6000 nM | ELISA OD450 [3]: .01 | EC50 [4]: > 100000 nM
Sequence: IKENLKDCGLF [Gt, reference compound]

ELISA [2]: .603
Sequence: ILESLNECGLF [Clone L34]

ELISA [2]: .600
Sequence: ILQNLKDCGLF [Clone L17]

ELISA [2]: .423
Sequence: IRGSLKDCGLF [Clone L20]

ELISA [2]: .187
Sequence: ISKNLRDCGLL [Clone L13]

ELISA [2]: .257
Sequence: IVKNLEDCGLF [Clone L8]

ELISA [2]: .823
Sequence: LLDILKDCGLF [Clone L38]

EC50 [3]: 7.8 nM | ELISA OD450 [3]: .54 | EC50 [4]: 940 nM
Sequence: LLENLRDCGMF [Peptide 8]

binding affinity to light-activated rhodopsin (in words) [3]: high affinity | stabilization of MII (in words) [4]: stabilized MII
Sequence: LLENLRDCGMI [MBP-8]

EC50 [3]: 10 nM | ELISA OD450 [3]: .35 | EC50 [4]: 1050 nM
Sequence: LQQVLKDCGLL [MBP-9]

ELISA [2]: .833
Sequence: LRENLKDCGLL [Clone L14]

ELISA [2]: .525
Sequence: MLDNLKDCGLF [Clone L7]

EC50 [3]: 3.8 nM | ELISA OD450 [3]: .58 | EC50 [4]: 1240 nM
Sequence: MLENLKDCGLF [MBP-18]
binding affinity to light-activated rhodopsin (in words) [3]: even higher binding affinities than did MBP-8

EC50 [3]: 6.6 nM | ELISA OD450 [3]: .61 | EC50 [4]: 490 nM
Sequence: MLKNLKDCGMF [MBP-24]
binding affinity to light-activated rhodopsin (in words) [3]: even higher binding affinities than did MBP-8

EC50 [3]: 20 nM | ELISA OD450 [3]: .66 | EC50 [4]: 3500 nM
Sequence: VLEDLKSCGLF [MBP-23]

ELISA [2]: .621
Sequence: VRDILKDCGLF [Clone L15]
